In the nanobody polyreactivity screen of Harvey et al. (2022):

Assay: yeast display, Sf9 membrane polyspecificity reagent, FACS + sequencing; frameworks hold sequencing errors
Summary of the method: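 A synthetic nanobody library was expressed on Saccharomyces cerevisiae BJ5465 by galactose induction for 36–48 hours. The library was stained for 1 hour at 4 °C with 10% biotinylated, detergent-solubilized Sf9 membrane reagent and enriched with streptavidin microbeads before FACS. Low and high (top ~1%) gates were set on anti-HA fluorescence for expression and streptavidin fluorescence for reagent binding, and each polyreactivity label reflects the gate of origin.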

Row | Sequence | polyreactivity (PSR sort gate)
1 | QVQLVESGGGLVQAGGSLRISCAASGSTFQGNAMGWSRHAPGKERELVAAISRSGGSTYADSVKGRFTISRDNAKNTVYLQMNSLKPEDTAVYYCSADAPFDRPYNYWGQGTQVTVSS | low polyreactivity
2 | QVQLVESGGGLVQAGGSLRLSCAASGRTFKYNTMGWYRQAPGKERELVAVISRSGGRTYYADSVKGRFTISRDNAKNTVYLQMNSLKPEDTAVYYCAKGIPYADPQSAYDDYWGQGTQVTVSS | high polyreactivity
3 | QVHLVESGGGLDQAGGTLRLSCAATGSIIQSYAMGWYRQAPGKESELVAAITARGTSTYYADSVKGRFTISRDNAKNTVYLQMNSLKPEETAVYYCTTDRSRSPGDVECQSDIKRDYWGQGTQVTVSS | low polyreactivity
4 | QVQLVESGGGLVQAGGSLRLSCAASGSTFEQYAMGWYRQAPGKERELVASISTGGGRTYYADSVKGRFTISRDNAKNTVFLQMNSLKPEDTAVYYCNKRYRGYKTGYSRYDYWGQGTQVTVSS | low polyreactivity
5 | QVQLVESGGGLVQAGGSLRISCAASGFTFAYYAMGRYRQAPGKERELVASITSGGSTYYADSVKGRFTISRDNAKNNVYLQMNSLKPEDTAVYYCAADSSIDYDWGQGTQVTVSS | high polyreactivity
6 | QVPLVESGGGLVQAGGSLRLSCAASGSTLTSNAMGWYRQAPGKERELVAAIRSGGSTNYADSVKGRFTISRDNAKNTVYLQMNSLKPEDTAVYYCNTDFLWQGYGYSRVSYDYWGQGTQVTVSS | low polyreactivity
7 | QVQLVESGGGLVQAGGSLRLSCAASGSIFAYNAMGWYRQAPGKERELVAAISAGGRTKYADSVKGRFTISRDNAKNTVYLQMNCLKPEDTAVYYCAAESYTGKYSWVWKWYDYWGQGTQVTVSS | low polyreactivity
8 | QDQLVESGGGLVQAGGSLRLSCAASGIIVTYYAMGWYRQAPGKERELVAAISESGGITYYADSVKGRFTISRDNAKNTVYLQMISLKPEVTGVYYCNAEYWGYAWPYDYWGQGTQVTVSS | high polyreactivity
9 | QVQLVESGGGLVQAGGSLRLICAASGSIFGYYAMGWYRQAPGKERELVAGITNSGDTNYADSVKGRFTISRDNAKNTVYLQMNSLKPEDTAVYYCAADGSYQYYYWGQGTQVTVSS | low polyreactivity
10 | QVQLVESGGGLVQAGGSLRLSCAASGLTFPYYAMGWYRQAPGKERELVAAISSSGGSTYYADSVKGRFTISRDNAKNTVYLQMNSLKPEDTAVYYCAAQRYINYDYWGQGTQVTVSS | high polyreactivity
11 | QVQLVESGGGLVQAGGSLRLSCAASGRTFTRNAMGWYRQAPGKERELVAAITRGASTYYADSVKGRFTISRDNAKNTVYLQMNSLKPEDTAVYYCAVSQYRGIYRKYDYWGQGTQVTVSS | high polyreactivity
12 | QVHLVESGGGLVQAGGSLRLSCDASGRIFKYNAMGWYRQAPGKERELVAAISSGGSTNYADSVKGRFTISRDNAKNTVYLQMNSLKPEDTAVYDCAADGTRVSSFHYLVWLCYWGQGTQVTVSS | low polyreactivity
13 | QVQLVESGGGLVEAGGSLRLSCAASGSTFGVNAMGWSRQAPGKERELVAVITRSGGSTYYADSVKGRFTISRDNAKNTVYLQMNSLKPEDTAVYYCAKSGVVDWGQGTQVTVSS | low polyreactivity
14 | QVQLVESGGGLVQAGGSLRISCASSGRTFWGNAKGRYRQAPGKERELVAGITKSGGTTYADSVKGRFTISRDNAKKTVYLQMNSLKPEDTAVYYCNAVRWQKGDYWGQGTQVTVSS | high polyreactivity
15 | QVQLVESGGGLVQAGGSLRLSCAASGFIFRTYAMGWYRQAPGKERDLVAAISWRGGSTYYADSVKGRFTISRDNAKNTVYLQMNSLKPEDTAVYYCAKDTTRGVYRSWPKDMDYWGQGTQVTVSS | low polyreactivity
16 | QLQLVESGGGLVQAGGSLRLSCAASGRILRYYTMGWYRQAPGKERELVAAISRSGGGTYYADSVKGRFTISRDNANNTVDIEMYSLIPEDTSVYYCAAYKPSPYSSDYDYWGEGTQVTVSS | high polyreactivity
17 | QVQLVESGGGLVQAGGSLRLSCAASGSTFYIYAMGWYRQAPGKERELVAVITRRGGSTSYADSVKGRFTISRDNAKNTVYLQMNSLKPEDTAVYYCAAKRTWPDVKYIRYGYWGQGAQVTVSS | high polyreactivity
